{"source": "patent US12099068B2", "about": "“Biomarkers for graft-versus-host disease” (Incyte Corporation, priority 2018, dated 2024)", "tested_on": "plasma proteins", "experiment": "Plasma proteins modulated between baseline and day 28 in responders (CR, VGPR, PR; n = 19), Example 6 (Table 13)", "type": "in vivo, human", "conditions": "plasma protein (OLINK NPX); responders (CR, VGPR, PR; n = 19); itacitinib 200 mg or 300 mg QD with corticosteroids; day 28 vs baseline", "in_short": "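Plasma at baseline/screening and day 28 profiled for >1000 proteins by OLINK proximity extension assay, reported as NPX (log2). Steroid-naive and steroid-refractory patients pooled. Paired and unpaired t tests, ANOVA and Pearson correlation applied; significance at P<0.05.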", "data": [{"molecule": "CD200R1 (protein, UniProt Q8TD46 25-348, looked up) Cell surface glycoprotein …: EGAAQPNNSLMLQTSKENHALASSSLCMDEKQITQNYSKVLAEVNTSWPVKMATNAVLCCPPIALRNLIIITWEIILRGQPSCTKAYKKETNETKETNCTDERITWVSRPDQNSDLQIRTVAITHDGYYRCIMVTPDGNFHRGYHLQVLVTPEVTLFQNRNRTAVCKAVAGKPAAHISWIPEGDCATKQEYWSNGTVTVKSTCHWEVHNVSTVTCHVSHLTGNKSLYIELLPVPGAKKSAKLYIPYIILTIIILTIVGFIWLLKVNGCRKYKLNKTESTPVVEEDEMQPYASYTEKNNPLYDTTNKVKASEALQSEVDTDLHTL", "values": [{"measurement": "Fold Change, Decreased Expression from Baseline to Day 28", "result": "−1.4752"}]}, {"molecule": "STX8 (protein, UniProt Q9UNK0 1-236, looked up) Syntaxin-8: MAPDPWFSTYDSTCQIAQEIAEKIQQRNQYERKGEKAPKLTVTIRALLQNLKEKIALLKDLLLRAVSTHQITQLEGDRRQNLLDDLVTRERLLLASFKNEGAEPDLIRSSLMSEEAKRGAPNPWLFEEPEETRGLGFDEIRQQQQKIIQEQDAGLDALSSIISRQKQMGQEIGNELDEQNEIIDDLANLVENTDEKLRNETRRVNMVDRKSASCGMIMVILLLLVAIVVVAVWPTN", "values": [{"measurement": "Fold Change, Decreased Expression from Baseline to Day 28", "result": "−1.4796"}]}, {"molecule": "TACSTD2 (protein, UniProt P09758 27-323, looked up) Tumor-associated calcium …: HTAAQDNCTCPTNKMTVCSPDGPGGRCQCRALGSGMAVDCSTLTSKCLLLKARMSAPKNARTLVRPSEHALVDNDGLYDPDCDPEGRFKARQCNQTSVCWCVNSVGVRRTDKGDLSLRCDELVRTHHILIDLRHRPTAGAFNHSDLDAELRRLFRERYRLHPKFVAAVHYEQPTIQIELRQNTSQKAAGDVDIGDAAYYFERDIKGESLFQGRGGLDLRVRGEPLQVERTLIYYLDEIPPKFSMKRLTAGLIAVIVVVVVALVAGMAVLVITNRRKSGKYKKVEIKELGELRKEPSL", "values": [{"measurement": "Fold Change, Increased Expression from Baseline to Day 28", "result": 1.1931}]}, {"molecule": "LY9 (protein, UniProt Q9HBG7 48-655, looked up) T-lymphocyte surface antigen …: KDSAPTVVSGILGGSVTLPLNISVDTEIENVIWIGPKNALAFARPKENVTIMVKSYLGRLDITKWSYSLCISNLTLNDAGSYKAQINQRNFEVTTEEEFTLFVYEQLQEPQVTMKSVKVSENFSCNITLMCSVKGAEKSVLYSWTPREPHASESNGGSILTVSRTPCDPDLPYICTAQNPVSQRSSLPVHVGQFCTDPGASRGGTTGETVVGVLGEPVTLPLALPACRDTEKVVWLFNTSIISKEREEAATADPLIKSRDPYKNRVWVSSQDCSLKISQLKIEDAGPYHAYVCSEASSVTSMTHVTLLIYRRLRKPKITWSLRHSEDGICRISLTCSVEDGGNTVMYTWTPLQKEAVVSQGESHLNVSWRSSENHPNLTCTASNPVSRSSHQFLSENICSGPERNTKLWIGLFLMVCLLCVGIFSWCIWKRKGRCSVPAFCSSQAEAPADTPEPTAGHTLYSVLSQGYEKLDTPLRPARQQPTPTSDSSSDSNLTTEEDEDRPEVHKPISGRYEVFDQVTQEGAGHDPAPEGQADYDPVTPYVTEVESVVGENTMYAQVFNLQGKTPVSQKEESSATIYCSIRKPQVVPPPQQNDLEIPESPTYENFT", "values": [{"measurement": "Fold Change, Decreased Expression from Baseline to Day 28", "result": "−1.4447"}]}, {"molecule": "REN (protein, UniProt P00797 67-406, looked up) Renin: LTLGNTTSSVILTNYMDTQYYGEIGIGTPPQTFKVVFDTGSSNVWVPSSKCSRLYTACVYHKLFDASDSSSYKHNGTELTLRYSTGTVSGFLSQDIITVGGITVTQMFGEVTEMPALPFMLAEFDGVVGMGFIEQAIGRVTPIFDNIISQGVLKEDVFSFYYNRDSENSQSLGGQIVLGGSDPQHYEGNFHYINLIKTGVWQIQMKGVSVGSSTLLCEDGCLALVDTGASYISGSTSSIEKLMEALGAKKRLFDYVVKCNEGPTLPDISFHLGGKEYTLTSADYVFQESYSSKKLCTLAIHAMDIPPPTGPTWALGATFIRKFYTEFDRRNNRIGFALAR", "values": [{"measurement": "Fold Change, Increased Expression from Baseline to Day 28", "result": 1.4074}]}, {"molecule": "APLP1 (protein, UniProt P51693 39-650, looked up) Amyloid beta precursor like …: SLAGGSPGAAEAPGSAQVAGLCGRLTLHRDLRTGRWEPDPQRSRRCLRDPQRVLEYCRQMYPELQIARVEQATQAIPMERWCGGSRSGSCAHPHHQVVPFRCLPGEFVSEALLVPEGCRFLHQERMDQCESSTRRHQEAQEACSSQGLILHGSGMLLPCGSDRFRGVEYVCCPPPGTPDPSGTAVGDPSTRSWPPGSRVEGAEDEEEEESFPQPVDDYFVEPPQAEEEEETVPPPSSHTLAVVGKVTPTPRPTDGVDIYFGMPGEISEHEGFLRAKMDLEERRMRQINEVMREWAMADNQSKNLPKADRQALNEHFQSILQTLEEQVSGERQRLVETHATRVIALINDQRRAALEGFLAALQADPPQAERVLLALRRYLRAEQKEQRHTLRHYQHVAAVDPEKAQQMRFQVHTHLQVIEERVNQSLGLLDQNPHLAQELRPQIQELLHSEHLGPSELEAPAPGGSSEDKGGLQPPDSKDDTPMTLPKGSTEQDAASPEKEKMNPLEQYERKVNASVPRGFPFHSSEIQRDELAPAGTGVSREAVSGLLIMGAGGGSLIVLSMLLLRRKKPYGAISHGVVEVDPMLTLEEQQLRELQRHGYENPTYRFLEERP", "values": [{"measurement": "Fold Change, Increased Expression from Baseline to Day 28", "result": 1.4933}]}, {"molecule": "NINJ1 (protein, UniProt Q92982 1-152, looked up) Ninjurin-1: MDSGTEEYELNGGLPPGTPGSPDASPARWGWRHGPINVNHYASKKSAAESMLDIALLMANASQLKAVVEQGPSFAFYVPLVVLISISLVLQIGVGVLLIFLVKYDLNNPAKHAKLDFLNNLATGLVFIIVVVNIFITAFGVQKPLMDMAPQQ", "values": [{"measurement": "Fold Change, Increased Expression from Baseline to Day 28", "result": 1.2723}]}, {"molecule": "SERPINA12 (protein, UniProt Q8IW75 21-414, looked up) Serpin A12: LKPSFSPRNYKALSEVQGWKQRMAAKELARQNMDLGFKLLKKLAFYNPGRNIFLSPLSISTAFSMLCLGAQDSTLDEIKQGFNFRKMPEKDLHEGFHYIIHELTQKTQDLKLSIGNTLFIDQRLQPQRKFLEDAKNFYSAETILTNFQNLEMAQKQINDFISQKTHGKINNLIENIDPGTVMLLANYIFFRARWKHEFDPNVTKEEDFFLEKNSSVKVPMMFRSGIYQVGYDDKLSCTILEIPYQKNITAIFILPDEGKLKHLEKGLQVDTFSRWKTLLSRRVVDVSVPRLHMTGTFDLKKTLSYIGVSKIFEEHGDLTKIAPHRSLKVGEAVHKAELKMDERGTEGAAGTGAQTLPMETPLVVKIDKPYLLLIYSEKIPSVLFLGKIVNPIGK", "values": [{"measurement": "Fold Change, Increased Expression from Baseline to Day 28", "result": 1.567}]}, {"molecule": "PRKRA (protein, UniProt O75569 1-313, looked up) Interferon-inducible …: MSQSRHRAEAPPLEREDSGTFSLGKMITAKPGKTPIQVLHEYGMKTKNIPVYECERSDVQIHVPTFTFRVTVGDITCTGEGTSKKLAKHRAAEAAINILKANASICFAVPDPLMPDPSKQPKNQLNPIGSLQELAIHHGWRLPEYTLSQEGGPAHKREYTTICRLESFMETGKGASKKQAKRNAAEKFLAKFSNISPENHISLTNVVGHSLGCTWHSLRNSPGEKINLLKRSLLSIPNTDYIQLLSEIAKEQGFNITYLDIDELSANGQYQCLAELSTSPITVCHGSGISCGNAQSDAAHNALQYLKIIAERK", "values": [{"measurement": "Fold Change, Decreased Expression from Baseline to Day 28", "result": "−1.2761"}]}, {"molecule": "THY 1 (protein, UniProt P04216 20-130, looked up) Thy-1 membrane glycoprotein: QKVTSLTACLVDQSLRLDCRHENTSSSPIQYEFSLTRETKKHVLFGTVGVPEHTYRSRTNFTSKYNMKVLYLSAFTSKDEGTYTCALHHSGHSPPISSQNVTVLRDKLVKC", "values": [{"measurement": "Fold Change, Decreased Expression from Baseline to Day 28", "result": "−1.2913"}]}, {"molecule": "CD84 (protein, UniProt Q9UIB8 22-345, looked up) SLAM family member 5: KDSEIFTVNGILGESVTFPVNIQEPRQVKIIAWTSKTSVAYVTPGDSETAPVVTVTHRNYYERIHALGPNYNLVISDLRMEDAGDYKADINTQADPYTTTKRYNLQIYRRLGKPKITQSLMASVNSTCNVTLTCSVEKEEKNVTYNWSPLGEEGNVLQIFQTPEDQELTYTCTAQNPVSNNSDSISARQLCADIAMGFRTHHTGLLSVLAMFFLLVLILSSVFLFRLFKRRQGRIFPEGSCLNTFTKNPYAASKKTIYTYIMASRNTQPAESRIYDEILQSKVLPSKEEPVNTVYSEVQFADKMGKASTQDSKPPGTSSYEIVI", "values": [{"measurement": "Fold Change, Decreased Expression from Baseline to Day 28", "result": "−1.7208"}]}, {"molecule": "KAZALD1 (protein, UniProt Q96I82 31-304, looked up) Kazal-type serine protease …: RPSPGPDYLRRGWMRLLAEGEGCAPCRPEECAAPRGCLAGRVRDACGCCWECANLEGQLCDLDPSAHFYGHCGEQLECRLDTGGDLSRGEVPEPLCACRSQSPLCGSDGHTYSQICRLQEAARARPDANLTVAHPGPCESGPQIVSHPYDTWNVTGQDVIFGCEVFAYPMASIEWRKDGLDIQLPGDDPHISVQFRGGPQRFEVTGWLQIQAVRPSDEGTYRCLGRNALGQVEAPASLTVLTPDQLNSTGIPQLRSLNLVPEEEAESEENDDYY", "values": [{"measurement": "Fold Change, Increased Expression from Baseline to Day 28", "result": 1.2609}]}, {"molecule": "SERPINA9 (protein, UniProt Q86WD7 24-417, looked up) Serpin A9: ANAPSAYPRPSSTKSTPASQVYSLNTDFAFRLYRRLVLETPSQNIFFSPVSVSTSLAMLSLGAHSVTKTQILQGLGFNLTHTPESAIHQGFQHLVHSLTVPSKDLTLKMGSALFVKKELQLQANFLGNVKRLYEAEVFSTDFSNPSIAQARINSHVKKKTQGKVVDIIQGLDLLTAMVLVNHIFFKAKWEKPFHPEYTRKNFPFLVGEQVTVHVPMMHQKEQFAFGVDTELNCFVLQMDYKGDAVAFFVLPSKGKMRQLEQALSARTLRKWSHSLQKRWIEVFIPRFSISASYNLETILPKMGIQNVFDKNADFSGIAKRDSLQVSKATHKAVLDVSEEGTEATAATTTKFIVRSKDGPSYFTVSFNRTFLMMITNKATDGILFLGKVENPTKS", "values": [{"measurement": "Fold Change, Increased Expression from Baseline to Day 28", "result": 1.5418}]}, {"molecule": "ITGB1BP2 (protein, UniProt Q9UKP3 1-347, looked up) Integrin beta-1-binding …: MSLLCRNKGCGQHFDPNTNLPDSCCHHPGVPIFHDALKGWSCCRKRTVDFSEFLNIKGCTMGPHCAEKLPEAPQPEGPATSSSLQEQKPLNVIPKSAETLRRERPKSELPLKLLPLNISQALEMALEQKELDQEPGAGLDSLIRTGSSCQNPGCDAVYQGPESDATPCTYHPGAPRFHEGMKSWSCCGIQTLDFGAFLAQPGCRVGRHDWGKQLPASCRHDWHQTDSLVVVTVYGQIPLPAFNWVKASQTELHVHIVFDGNRVFQAQMKLWGVINVEQSSVFLMPSRVEISLVKADPGSWAQLEHPDALAKKARAGVVLEMDEEESDDSDDDLSWTEEEEEEEAMGE", "values": [{"measurement": "Fold Change, Decreased Expression from Baseline to Day 28", "result": "−1.8787"}]}]}
